Results taken from patent publication US20070009972A1, “Epidermal growth factor receptor polypeptides and antibodies” (priority 2005, published 2007).
Blank lines part the entries; values can stand above or below the molecule they belong to. *: point of attachment. Biotin = O=C1N[C@H]2[C@H](CS[C@H]2CCCCC(=O)*)N1; Ahx = NCCCCCC(=O)O

Key:
EGFR = target: T1, EGFR (Homo sapiens, UniProt P00533); test: Cyclic polypeptide inhibition of EGFR phosphorylation in model HMEC cell system; type: cell-based; details: biotinylated cyclic polypeptide
T1 construct: tested them in a model HMEC cell system; endogenous in cells; host or cells: 184A1 human mammary epithelial cells (HMECs)
Source text: We selected amino acid sequences corresponding to fragments of Domain II and Domain IV of EGFR. The sequence of each polypeptide is shown in the first column of Table 1. The polypeptides were chosen based on their positions on the crystal structures of monomeric and dimeric EGFR (Burgess et al., Mol. Cell 12:541-552, 2003). Although Domain IV of EGFR is not resolved in the dimer crystal structure, it is believed that portions of Domain IV come into contact upon dimerization. […] We generated biotinylated cyclic polypeptides that included each sequence and tested them in a model HMEC cell system. The sequences of the biotinylated cyclic polypeptides are shown in the third column of Table 1. […] For the LYNPTTYQMD polypeptide, the different results obtained from polypeptide and polyclonal antisera inhibition could be due to differences in the quantitative details of the assays, or the polypeptide could have a lower affinity for the receptor than the polyclonal antisera does.

[1] = target: T2, Biotin-Aha-CMGENNTG-CONH2 (SEQ ID NO:10) (also: called cyclic, ring not described); test: yeast surface display screen of naive human library against the peptide (1 round MACS, 3 rounds FACS); clone isolated as specific binder
T2 construct: also called EGFR Domain IV (576-581) peptide
T2 peptide: {Biotin-Ahx}-CMGENNTG-NH2

[2] = target: T3, Biotin-GCAHYIDGPHCG-CONH2 (SEQ ID NO:9) (not fully specified (bridges); printed as Biotin-GCAHYIDGPHCG-; also: cyclic (type of ring not given here)); test: as above
T3 construct: Biotinylated cyclic polypeptide; also called EGFR Domain IV (558-567) peptide
T3 peptide: Biotin-GCAHYIDGPHCG-NH2

[3] = target: T4, Biotin-GCGLYNPTTYQMDGCG-CONH2 (SEQ ID NO:7) (not fully specified (bridges); printed as Biotin-GCGLYNPTTYQMDGCG-; also: cyclic (type of ring not given here)); test: as above
T4 construct: Biotinylated cyclic polypeptide tested on HMECs; also called EGFR Domain II (245-254) peptide
T4 peptide: Biotin-GCGLYNPTTYQMDGCG-NH2

[4] = target: T5, Biotin-GCLVWKYADAGCG-CONH2 (SEQ ID NO:11) (not fully specified (bridges); printed as Biotin-GCLVWKYADAGCG-; also: cyclic (ring type and places not given here)); test: as above
T5 construct: Biotinylated cyclic polypeptide; also called EGFR Domain IV (582-590) peptide
T5 peptide: Biotin-GCLVWKYADAGCG-NH2

[5] = target: T6, Biotin-GCRNVSRGRECG-CONH2 (SEQ ID NO:8) (not fully specified (bridges); printed as Biotin-GCRNVSRGRECG-; also: cyclic (ring type and places not given here)); test: as above
T6 construct: Biotinylated cyclic polypeptide; also called EGFR Domain IV (502-511) peptide
T6 peptide: Biotin-GCRNVSRGRECG-NH2

Molecule: CAHYIDGPHC [Biotin-GCAHYIDGPHCG-CONH2]
Peptide Inhibition (EGFR): Yes

Molecule: CRNVSRGREC [Biotin-GCRNVSRGRECG-CONH2]
Peptide Inhibition (EGFR): Yes

Molecule: LVWKYADAG [Biotin-GCLVWKYADAGCG-CONH2]
Peptide Inhibition (EGFR): Yes

Molecule: LYNPTTYQMD [Biotin-GCGLYNPTTYQMDGCG-CONH2]
Peptide Inhibition (EGFR): No

binding result [1]: binds
B1: SEQ ID NO 37 (other)
VH: QVQLQESGPGLVKPSETLSLTCTVSGGSISNSDYYWGWIRQPPGKGLRWIGSINYYGTTYYNPSLKSRVAMSVDTSKNQFSLKLSSVTAADTAVYYCARRGANSWFFDLWGRGTLVTVSSGILGSGGGSGGGGSGGGGLQEF
notes: also called VH clone isolated against MGENNT

binding result [1]: binds
B2: SEQ ID NO 36 (other)
VH: QVQLQESGPGLVKPSETLSLTCTFSGGSIRSSSDYWGWVRQPPGKGLEWIGSISSSGSTYYNPSLKSRVTISVDTSRNQFSLRLSSVTAADTAIYYCARYNHYWYFDLWGRGTLVTVSSGILGSGGGSGGGGSGGGGSKRHSRSLQHSSQRLQETKSTSPAKPAKTLMMI
notes: as for B1

binding result [2]: binds
B3: SEQ ID NO 28 (scFv)
scFv: QVQLQQSGPGLVKPSQTLSLTCAISGDSVSSNSAAWNWIRQSPSRGLEWLGRTYYRSKWYNEYAVSVKSRITINPDTSKNHFSLQLNSVTPEDTAVYYCAREIVGTPFDYWGQGTLVTVSSGILGSGGGGSGGGGSGGGGSDIRVTQSPSSLSASVGDRVTITCRTSQSASKYVNWYQQKPGKVPKLLIYAASSLQSGVPSRFSGSGSGTHFTLSISNLQPGDMGTYYCQQGYGTPLTFGGGTKLEIKSGF

binding result [3]: binds
B4: SEQ ID NO 19 (other)
VH: QVQLVQSEGGVVQPGRSLRLSCAAPGFTFSSYAMHWVRQAPGKGLEWVAVISYDGSNKYYADSVKGRFTISRDNSKNTLYLQMNSLRAEDTAVYYCARDEGYYGSGCIDYWGQGTLVTVSSGILGSGGGGSGGGGSGGGGLQEF

binding result [4]: binds
B5: SEQ ID NO 38 (other)
VH: QITLKESGPTVVKPTQTLTLTCTFSGFSLSTSGVGVGWIRQPPGKALEWLALISWDDDKRYSPSLKSRLTITKDTSKNQVVLTMTNMDPVDTATYFCAHLNNFVDAIELRTGWCFDVWGRGTLVTVSGILGSGGGGSGGGGSGGGVLKLC

binding result [4]: binds
B6: SEQ ID NO 39 (other)
VH: QITLKESGPTVVKPTQTLTLTCTFSGFSLSTSGVGVGWIRQPPGKALEWLALISWDDDKRYSPSLKSRLTITKDTSKNQVVLTMTNMDPVDTATYFCAHLINFVDAIELRTGWCFDVWGRGTLVTVSGILGSGGGGSGGGGSGGGVLKLR

binding result [5]: binds
B7: SEQ ID NO 21 (other)
VH: QVQLQQWGPGLLKPSETLSLTCGVSGGSLSGYYWSWIRQSPGKELEWIGEINQGGSTNYNPSLRSRVTISVDTSKKQLSLKVNSVTASDTAVYYCARETFRGSNCFDSWGQGTLVTVSSGILGSGGGIGGGGSGGGGLQEF

binding result [3]: binds
B8: SEQ ID NO 18 (other)
VH: QVQLVQSEGGVVQPGRSLRLSCAASGFTFSSYAMHWVRQAPGKGLEWVAVISYDGSNKYYADSVKGRFTISRDNSKNTLYLQMNSLRAEDTAVYYCARDEGYYGSGCIDYWGQGTLVTVSSGILGSGGGSGGGGSGGGGLQEF

binding result [2]: binds
B9: SEQ ID NO 27 (scFv)
scFv: QITLKESGPTLVKPTQTLTLTCTFSGFSLSTNGVGVGWIRQPPGKALEWLALIYWNDDKRYSPSLKRRLTITKDTSKNQVVLTMTNMDPVDTATYYCAHRLLDSGYILPPTFDYWGQGTLVTVSSGILGSGGGGSGGGGSGGGGSEIVLTQSPGTLSLSPGERATLSCRASQSVNSGYLAWYQQKPGQAPRLLISAASSRATGIPDRFSGSGSGTDFTLTISRLEPEDFAVYYCQRYDTSRGFTFGPGTKVDIKSGF

binding result [5]: binds
B10: SEQ ID NO 20 (other)
VH: QVQLQQSGPGLVKPSQTLSLTCDISGDSVSSDSAAWNWIRLSPSRGLEWLGRTYYWSKWYTDYAVSVKSRITINPDTSKNQFSLQLNSVTPEDTAVYFCARERYCSSTSCYLDAFDIWGQGTMVTVSGILGSGGGGSGGGGSGGGGLQEF

binding result [2]: binds
B11: SEQ ID NO 35 (scFv)
scFv: QVQLVESEGRLVKPGGSLRLSCVASGMTFNNAWMSWVRQAPGKGLEWVGRIRSESNGGTTDYAAPGKGRFTISRDDSKNTLYLQMNSLQIEDTAVYYCATDRGYSNSGNYYRHYWGQGTLVTVSSGILGSGGGGSGGGGSGGGGSDIRLTQSPSSLSASVGDRVTITCQASQDISNYLNWYQQKPGKAPKLLIYDASNLETGVPPRFSGSGSGTAFTFTISSLQPEDFATYYCQQYDNLPHTFGPGTKVDIKSGILEQKLISEEDL
